According to article PMC10318527, “Utilization of dietary mixed-linkage β-glucans by the Firmicute Blautia producta” (The Journal of Biological Chemistry, 2023):

Biological target: BpGH94MLG, glycoside (cellodextrin) phosphorylase of CAZy family GH94 from Blautia producta ATCC 27340 (Blautia producta ATCC 27340)
Experiment: crystal structure; crystal structure of recombinant BpGH94MLG at 2.3 Å; two copies per asymmetric unit; crystallisation methods not shown (supplement)

For “BpGH94MLG, glycoside (cellodextrin) phosphorylase of CAZy family GH94 from Blautia producta ATCC 27340 (enzyme)”, the stoichiometry N was 2.
